Laboratory results reported in US20240408194A1, “DNA ORIGAMI SUBUNIT VACCINE FOR PREVENTION OF SARS-CoV-2 VARIANT INFECTION” (priority 2021, published 2024).

Assays:
[1] = target: T1, SARS-CoV-2 spike protein receptor binding domain (RBD), monomeric (SARS-CoV-2), P0DTC2
[2] = target: T1, SARS-CoV-2 spike protein receptor …; remark: listed apart in the source

B1: DNA-LCB (designed binder)
chain: CDKEWILQKIYEIMRLLDELGHAEASMRVSDLIYEFMKKGDERLLEEAERLLEEVER
modifications: not checked
Work on B1 yielded a protein coverage [1] of 71.6% and a Fluorescence (average) [2] of 2.08e+07.
